Assay results from US20240368301A1 (HANGZHOU JIUYUAN GENE ENGINEERING, published 2024).
Changes are numbered by the printed parent chain.

T1: cynomolgus macaques SIRPα-his (ACRO, Cat #SIA-C52H7) (cynomolgus macaque, UniProt A0A2K5VYQ9 31-369)
T1 construct: also called Monkey SIRPα; cynomolgus macaque SIRPα
T1 sequence: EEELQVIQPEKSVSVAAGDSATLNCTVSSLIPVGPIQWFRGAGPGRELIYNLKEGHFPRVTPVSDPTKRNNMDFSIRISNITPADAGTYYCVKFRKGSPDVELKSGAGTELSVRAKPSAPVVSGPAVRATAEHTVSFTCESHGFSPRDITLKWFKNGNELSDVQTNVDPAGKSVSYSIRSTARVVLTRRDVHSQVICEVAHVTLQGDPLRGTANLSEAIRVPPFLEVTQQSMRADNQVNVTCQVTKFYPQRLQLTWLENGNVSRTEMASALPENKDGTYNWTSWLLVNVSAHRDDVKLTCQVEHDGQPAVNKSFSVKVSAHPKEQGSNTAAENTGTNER

B1: Z6 (antibody, IgG1, V domains shown)
VH: QVQLQESGPGLVKPSQTLSLTCTVSGFSLTGYGVNWIRQPPGKGLEWIGIIWGDGSTDYNSALKSRVTISKDTSKNQVFLKLSSVTAADTAVYYCARAGKMDYWGQGTTVTVSS
VL: DIVLTQSPASLAVSPGQRATITCRASESVDSYGNSFMHWYQQKPGQPPKPLIYLASNLESGVPARFSGSGSRTDFTLTINPVEANDAANYYCQQNNEYPWTFGGGTKVEIK
notes: also called humanized variant Z6
B2: Z7 (antibody, IgG1, V domains shown)
VH: B1 VH with A88D, V92R
VL: B1 VL with R72G
notes: also called humanized variant Z7
B3: Z5 (antibody, IgG1, V domains shown)
VH: B1 VH
VL: B1 VL with P50L
notes: also called humanized variant Z5
B4: Z9 (antibody, IgG1, V domains shown)
VH: B1 VH with A88D, V92R
VL: B1 VL
notes: also called humanized variant Z9
B5: Z3 (antibody, IgG1, V domains shown)
VH: B1 VH with K71V
VL: B1 VL
notes: also called humanized variant Z3
B6: Z8 (antibody, IgG1, V domains shown)
VH: B1 VH with A88D, V92R
VL: B1 VL with P50L
notes: also called humanized variant Z8
B7: Z1 (antibody, IgG1, V domains shown)
VH: B1 VH with K71V
VL: B1 VL with R72G
notes: also called humanized variant Z1
B8: Z4 (antibody, IgG1, V domains shown)
VH: B1 VH
VL: B1 VL with R72G
notes: also called humanized variant Z4
B9: H7L4-G1 (antibody, human IgG1, kappa)
heavy: not shown
light: DIVLTQSPASLAVSPGQRATITCRASESVDSYGNSFMHWYQQKPGQPPKPLIYLASNLESGVPARFSGSGSGTDFTLTINPVEANDAANYYCQQNNEYPWTFGGGTKVEIKRTVAAPSVFIFPPSDEQLKSGTASVVCLLNNFYPREAKVQWKVDNALQSGNSQESVTEQDSKDSTYSLSSTLTLSKADYEKHKVYACEVTHQGLSSPVTKSFNRGEC
notes: Humanized antibody with wild type human IgG1 and kappa; also called H7L4-G1w
B10: H7L4-G1lala (antibody, human IgG1, kappa, L234A L235A)
heavy: not shown
light: B9 light
notes: also called humanized antibody H7L4
B11: BI 765063 (antibody, V domains shown)
VH: EVQLVQSGAEVKKPGESLRISCKASGYSFTSYWVHWVRQMPGKGLEWMGNIDPSDSDTHYSPSFQGHVTLSVDKSISTAYLQLSSLKASDTAMYYCVRGGTGTLAYFAYWGQGTLVTVSS
VL: DVVMTQSPLSLPVTLGQPASISCRSSQSLVHSYGNTYLYWFQQRPGQSPRLLIYRVSNRFSGVPDRFSGSGSGTDFTLKISRVEAEDVGVYYCFQGTHVPYTFGGGTKVEIKR

Target: T2, SIRPα V1-his (ACRO, Cat #SIA-H5225) (human, UniProt P78324 31-370)
T2 construct: not shown: His tag
Assay: SPR (Biacore), antibody captured by anti-Fc on CM5, 50 nM SIRPα V1-his injected, 1:1 model
Protocol: Using the Biacore analysis system, activators were prepared by mixing 400 mM EDC and 100 mM NHS and activated with a CM5 sensor chip at a flow rate of 10 μL/min for 420 s. Anti-Fc antibody at 30 μg/mL dissolved in 10 mM NaAc (pH 4.5) was injected into the channel at a flow rate of 10 μL/min and then closed with 1 M ethanolamine-HCl at a flow rate of 10 μL/min for 420 s. […] All experimental data were fitted using a 1:1 binding model.

Binder | Kd [pM] | koff [s⁻¹] | kon [M⁻¹ s⁻¹]
B1 | 2340 | 0.00165 | 708000
B2 | 2010 | 0.00151 | 754000
B3 | 27800 | 0.0208 | 747000
B4 | 2270 | 0.0016 | 708000
B5 | 4170 | 0.00292 | 699000
B6 | 25300 | 0.0194 | 768000
B7 | 3610 | 0.00269 | 744000
B8 | 1980 | 0.00154 | 775000

Target: T3, SIRPα-V8 on stably transfected cells (Homo sapiens (Human), UniProt P78324 31-504)
T3 construct: also called CHOZN-SIRPα-V8; 293T-SIRPα-V8
Assay: competition FACS: 293T-SIRPα-V8 cells, antibody titrated against CD47-FITC, % of blocking (panel SIRPα-V8-CD47)
Protocol: (§1) After washing, cells were analyzed by utilizing FlowJo V10 and GraphPad Prism6 software.

Binder | IC50 (read off the curve) [pM]
B9 | ~10000
B10 | ~7000

Target: T4, SIRPα-V1 on 293T-SIRPα-V1 cells (human, UniProt P78324 31-504)
T4 construct: Stably transfected cell line
Assay: competition FACS: 293T-SIRPα-V1 cells, antibody titrated against CD47-FITC, % of blocking (panel SIRPα-V1-CD47)
Protocol: as §1

Binder | IC50 (read off the curve) [pM]
B11 | ~300
B9 | ~200
B10 | ~100

Target: T1, cynomolgus macaques SIRPα-his (ACRO, …)
Assay: ELISA: coated cynomolgus macaques SIRPα-his, antibody titrated, goat anti-hIgG Fc HRP (left panel)
Protocol: 100 μL of 1 μg/mL of cynomolgus macaques SIRPα-his were coated overnight at 4° C. in Maxisorp ELISA 96-well plates. […] After washing, each well was incubated with 100 μL of 1:5000-fold diluted goat anti-hIgG Fc HRP for 1 h at 37° C. and then substrate TMB, and read by an enzyme marker.

Binder | EC50 (read off the curve) [pM]
B9 | ~40
B10 | ~40

Target: T2, SIRPα V1-his (ACRO, Cat #SIA-H5225)
Assay: competition ELISA: coated SIRPα-V1-his, antibody titrated against biotin-CD47, streptavidin-HRP (panel SIRPα-V1-CD47)
Protocol: 100 μL of 1 μg/mL of recombinant SIRPα-V1-his and SIRPα-V2-his were coated overnight at 4° C. in Maxisorp ELISA 96-well plates. […] After washing, each well was added with 0.2 μg Streptavidin-HRP, substrate TMB, and read by an enzyme marker.

Binder | IC50 (read off the curve) [pM]
B11 | ~4000
B9 | ~3000
B10 | ~3000

Target: T2, SIRPα V1-his (ACRO, Cat #SIA-H5225)
Assay: BLI (ForteBio Octet RED 96): SIRPα V1-his on Ni-NTA biosensor, antibody in a 1:2 series of 7 concentrations (row SIRPα-V1)
Protocol: 5 μg/mL SIRPα V1-his and SIRPα V2-his was loaded to a Ni-NTA biosensor for 600 s, respectively. […] The binding time was 200 s and the dissociation time was 600 s. The data were fitted to calculate the affinity.

Binder | Kd [pM] | koff [s⁻¹]
B11 | < 1 | < 1e-07
B9 | < 1 | < 1e-07
B10 | < 1 | < 1e-07

Target: T3, SIRPα-V8 on stably transfected cells
Assay: FACS titration on 293T-SIRPα-V8 cells, goat anti-hIgG-AF488 (panel SIRPα-V8)
Protocol: (§2) After washing, cells were stained by 0.2 μg of goat anti-hIgG-AF488 at 4° C. for 30 min, resuspended in […] of DPBS/1% FBS, and analyzed by FlowJo V10 and GraphPad Prism6 software.

Binder | EC50 (read off the curve) [pM]
B9 | ~800
B10 | ~600

Target: T5, SIRPγ on cells (Jurkat cells) (UniProt Q9P1W8 29-387)
T5 construct: whole, on cells
Assay: FACS titration on SIRPγ-carrying cells, goat anti-hIgG-AF488 (panel SIRPγ)

Binder | binding result
B9 | binds
B10 | binds

Target: T4, SIRPα-V1 on 293T-SIRPα-V1 cells
Assay: FACS titration on 293T-SIRPα-V1 cells, goat anti-hIgG-AF488 (panel SIRPα-V1)
Protocol: as §2

Binder | EC50 (read off the curve) [pM]
B11 | ~1000
B9 | ~500
B10 | ~400

Target: T2, SIRPα V1-his (ACRO, Cat #SIA-H5225)
Assay: ELISA: coated SIRPα-V1-his, antibody titrated, goat anti-hIgG Fc HRP (panel SIRPα-V1)
Protocol: (§3) 100 μL of 1 μg/mL of SIRPα-V1-his, SIRPα-V2-his and SIRPα-V8-his (Sino Biological, Cat #30015-H08H) were coated overnight at 4° C. in Maxisorp ELISA 96-well plates. […] After washing, 100 μL of 1:5000 dilution of goat Anti-hIgG Fc HRP (Invitrogen, Cat #A18823) was added to each well and incubated for 1 h. TMB substrate was used for color development and enzyme marker readings.

Binder | EC50 (read off the curve) [pM]
B11 | ~50
B9 | ~30
B10 | ~30

Target: T6, SIRPα-V8-his (Sino Biological, Cat #30015-H08H)
T6 construct: The His tag belongs to the same chain; not shown: exact C-terminal limit of the vendor's construct
Assay: ELISA: coated SIRPα-V8-his, antibody titrated, goat anti-hIgG Fc HRP (panel SIRPα-V8)
Protocol: as §3

Binder | EC50 (read off the curve) [pM]
B9 | ~20
B10 | ~20

Target: T3, SIRPα-V8 on stably transfected cells
Assay: FACS titration on CHOZN-SIRPα-V8 cells, goat anti-hIgG-AF488 (panel SIRPα-V8)
Protocol: (§4) 2×10⁵ per well of stable transfer construct cell lines 293T-SIRPα-V1 (SEQ ID NO: 2), CHOZN-SIRPα-V2 (SEQ ID NO: 38), and CHOZN-SIRPα-V8 (SEQ ID NO: 39) in logarithmic phase were dispended in 96-well U-shaped culture plates, […] After washing, the cells were incubated with 0.2 μg of goat anti-hIgG-AF488 for 30 min at 4° C., then resuspended in 50 μL of DPBS/1% FBS and analyzed by flow cytometry with FlowJo V10 and GraphPad Prism6 software.

Binder | EC50 (read off the curve) [pM]
B10 | ~600

Target: SIRPα-V2 on CHOZN-SIRPα-V2 cells (Homo sapiens (Human), UniProt P78324 31-504)
Assay: competition FACS: CHOZN-SIRPα-V2 cells, antibody titrated against CD47-FITC, % of blocking (panel SIRPα-V2-CD47)
Protocol: as §1

Binder | IC50 (read off the curve) [pM]
B9 | ~100
B10 | ~200

Target: T4, SIRPα-V1 on 293T-SIRPα-V1 cells
Assay: FACS titration on 293T-SIRPα-V1 cells, goat anti-hIgG-AF488 (panel SIRPα-V1)
Remark: another data set of the same source
Protocol: as §4

Binder | EC50 (read off the curve) [pM]
B10 | ~3000
